To fix the notation:
B1: F2-3 (peptide)
peptide: CYFDDSSNVICKKYRS
modifications: disulfide 1-11
notes: also called Peptide F2-3; BMP test agent F2-3
B2: bone morphogenetic protein-7 (ligand, UniProt P18075 293-431, looked up)
chain: STGSKQRSQNRSKTPKNQEALRMANVAENSSSDQRQACKKHELYVSFRDLGWQDWIIAPEGYAAYYCEGECAFPLNSYMNATNHAIVQTLVHFINPETVPKPCCAPTQLNAISVLYFDDSSNVILKKYRNMVVRACGCH
modifications: radio-iodinated (125I, lactoperoxidase method) when used as tracer; glycoprotein
notes: also called BMP-7
B3: extracellular domain (ECD) of the type II receptor daf-4, hexa-histidine tagged (receptor)
chain: WANTLVSKVAQSNGTGTIKVSAPAKPTLRRMDNEEDEVISIECVYYDEMECEKSGDCEITKKTCYSEAHLKAVGCLAVFGLPTQEINSTEPYLKVDKPQYKSLGCMPYQHADSMNCENESSCRQGRSFRGGIGMCCCSTNNCNMPDLIEMVNPSLKKDSDNSALLWASTPSNMDLESLDKSSSRASQPELAPEDPEDVEHHHHHH
modifications: heavily glycosylated
notes: Expressed in CHO cells; also called daf-4 ECD; ECD of daf-4 receptor

Experiment [1] has as its target T1, BMP-7 receptor of ROS cell plasma membrane fraction (ROS cell type II BMP receptor) (rat).
T1 construct: whole, on cells; Used as a plasma membrane fraction of ROS cells, not as a purified protein; also called BMP-7 receptor-enriched plasma membrane fraction of ROS cells; ROS cell receptor
In words: radioligand receptor assay, displacement of 125I-BMP-7 from ROS cell plasma membranes. In general terms: Displacement assays read how much labelled ligand stays bound in the presence of the test substance.

Experiment [2] deals with T1, BMP-7 receptor of ROS cell plasma …. Briefly: radioligand binding of 125I-BMP-7 to ROS cell receptor-enriched plasma membrane fraction. The procedure: Receptors from ROS cells are obtained by a procedure previously described (Dattatreyamurty, B., et al., (1986) J. Biol. Chem. 261.). […] In a typical assay, fixed amounts of ¹²⁵I-labeled sol. […] The assay incubations were carried out in a reaction volume of 300 μl with shaking for 22 hrs. at 4° C. […] The supernatants were aspirated and pellets washed before counting in a gamma counter (Packard Instr. Downers Grove, Ill.).

The target in experiment [3] is B2. In words: Scatchard analysis of BMP-7 binding to purified daf-4 ECD.

Bridges are numbered along the chain shown (N, C = ends). Where no end group is shown, it is not given here.

This passage reports IC50 and Ka results from US20090124537A1 (THRASOS, published 2009).

B1: the IC50 (commonly the concentration needed to halve the response being measured) in experiment [1] came to 10 µM.
For the molecule B2, the Ka in experiment [2] turned out to be 4.38e+09 M⁻¹.
The molecule B3 showed a Ka in experiment [3] of 2.96e+10 M⁻¹.
